This series in a line: label from the status in PepcDB records.
Regarding “MANFEDFLTLDLRIGTVTHAEEFKEARVPAIKLEIDFGELGMKQSSAQITKRYNPEDLIGQQIVAVVNFPPKRVAGFKSEVLVLGGVPEAGDVVLLQPNMELPNGTKIS”, the protein production result is reported as “not failed”. For “MANFIEKITYLGTPAIKAGNEHLEMIVVPEWGSNVISLVDKTTNVQLLREPETAESFHDTPTLYGIPILFPPNRISDGTFSFRGRTYHFDINEKDKHNHLHGFLYHEKWNVVTTKQTDEGVIVETEIDLSELPHVQKQFPHHAVVRMTYTIKENTLFKHATVMNKGKEAFPWGIGYHTTFIFPAESSLFSLTADQQWELDERLLPTGKLMDVPYKEALHEGMDLRHKQLDDVFLSSYQKRGGENQAVIYHQHAHISIIYKADEQFKHWVVYNADGKQGYLCPEPYTWVTNAVNLDLPSSLTGLQVLEPGEETTAKSSITIELNHQ” the value was “not failed”; for “MANIDLHFHSRTSDGALTPTEVIDRAAARAPALLALTDHDCTGGLAEAAAAAARRGIPFLNGVEVSVSWGRHTVHIVGLGIDPAEPALAAGLKSIREGRLERARQMGASLEAAGIAGCFDGAMRWCDNPEMISRTHFARHLVDSGAVKDMRTVFRKYLTPGKPGYVSHQWASLEDAVGWIVGAGGMAVIAHPGRYDMGRTLIERLILDFQAAGGQGIEVASGSHSLDDMHKFALHADRHGLYASSGSDFHAPGEGGRDVGHTEDLPPICRPIWRELEARILRP”, “failed”; for “MANIFIENSLLFALTQIVPLLYIVTTALYGIHFFKETPLAGSLKQPALILTVVTHVADLGLLTSTAGYRLSYSAYNLMSMVALTLAITYMFIEFTTKSDKTGFFVIAFAAGSALFSSILSSQTVDSGLAFSGLGIGVHLFAAIFGFSSVAIAGLYSGMYLVLFRQIRLNRFGLLFQRLPNLETLEMLIMHAVAFGFFFLSVTIVAGVLEQHASKEVINLFEPRLVSLFVIWALYGISLVIKPLFGWDIKHMAVLLIALFVLVTALLFIMSLVTPSFHGMSI”, “failed”. For “MANISLKQGQFVTNSLPNKWKFRNLTKILLRRRFIVLGVSCMVISATSFTAITNKPTYKSQMQILVSPNVSEEVGITNNNIDIPISIEQYSVQKNLMQSSKLIDKVVNLLSFDYPNITKENILGKTENSENSPLKVTQLETNKGAKQVLSPVFEISFQDNDPLKTKKVLLALQKVYQDYNLERRQERFNQGLAFINARLPVIKQQLRQAERKLEQFRKKHNLLDPELQSQVLIKSLTKTQEQLQLTRTQLQDINSRYQNLEERITEASQKALVSMRLAQSSRYKTLTSELQKTEQSLAKEQLRYTDDSPIVQSLKQQRRSQLTLVRQELKRLTAELKTQTTPEPEQLVGVDPNLVEEFVQVQTTALGLIANEKSLRESEQRIRSELSKYPSLIAEYQRLLPEVETQRKTLEQMLQAQQSMGMKIAHGGFDWLVLEEANLGTYVGNDRFWLVFVGMITGPILGVVLALIWGMRHRIIHSAQDLQKVSNLRLLGTVPKLAPRTMEKRLPNLSWLGGRNLTESEEVGNSWLPCHETLDMVYQNTQILKYPFPFKSMMVTSALPGEGRTTLAMGLAASAAHMHRRVLLIDANLRSPKLHKILQLSNDWGLSLLLLDETNTEVQDYIQPIHPSIDILTAGPTPEDAVELLSSQRLKDLIELFEETYDLVLIDAPPILGTVDGRIVASYCHGIMMVGRIGWVTQTELTQAVEILNSLNLVGIIANDMSSYHKG” the value was “failed”; for “MANKQVFPTKGNLIATKKSNALAHMGYELMDRKRNILIREMMGLLDDVKLLRDEITQTYAEAYRALQLANMSLGVISAMAEAVPIDTGLHVSYRSVMGVEIPKLSYDKQEIKPTYGLERANSKLDYAYTCFQRVKEMSVVLAEVENNVYRLANAIRKSQKRANALKNIVIPEFEHNIKFITDALEEKEREEFSRQKVIKRNKDSQMQMERK”, “failed”. On to “MANKTIAQTGSATSPTTNKSGTYVEVPLQDTIPIIFVPGIMGSNIFNTVLGKPVWMIGNGISGQVKTLTKQMGKTPAELQTELDPLNTRVDTSGDIKVDRRLKLTEKTLRERYWGTVHWDSYGGILTYLQMVLNNVDLNEKPIYTTGLGGGYAAVQQMKQQEAVYEWKSLLNQTESSKWFPQQSFVPINQQEIEHLKKFHFPVYAMGYNWLQSSENGAALVAQKLDKIKQEYGARFHKFIIVTHSMGGLLTRRLVQLCSADIAGVV”, for which the protein production result is on record as “failed”. For “MANNARIEHTSSEGHEGDATCVAYFDGQLFSGGADGKIRIWSPELQLLATVNAHEAYIYCMAINQHGKVYSSSCDGQVHFMLPPYGDESVQELFRCDDAIQAMYCDGSVLYTGDDKGVVTTWTNDRMLFKYSLVEEVKSLAGEQNLIYTVRDLDVVVSQVAEGKSGKYSNKAVIPGKSPLHLLGPMVDGKRSYLAFPDRSGMGLQLVNNLSQQQYSKIWHLPDCHELIINALCGDETYLYSGGYDKKVKGWTDLEAGKPKALGEVEVGSCVNSICCGANDTVYIASSDGFIRSAKFV” the value was “failed”; for “MANQTVERQSWSNRLAYIMTVAGATVGFGATWRFPYLVGENGGGAYVFLFCIAMIVIGIPMILVENVIGRRMKVNAIDAFSGQANGKKIASGWKILGYMGLLGAFGILSYYMVLGGWVLNYIGSLISGNLDLSSPITVETTTAYYQNSIQNSPITILCYAALFVLINFFILTKGIVDGIERSVKYLMPILFIFLLVMVVRNVTLPGATDGISFYLMPDFSKITPKLFVFVLGQVFFALSLGFGVLITLSSYLDKNENLIKTATITGIMNTFIAVLAGFMIFPSLFSFGVAPNSGPTLVFQSLPIVFSNMWGGTIFAIIFFSLLIVAALTTSLTIYEVIITALQEKTKISRKTAIGITLSSTFLIGNIPSVLGDNIWKDVTIMGKSIFDVFDYISGNILFILTALGSAIFVGYVLKDEAKAELGANKTLTTIWFNYVRFVIPIIIIVIFFNSL”, “failed”; for “MANSIDLIGYVHQPVQFDSTLDGKFWAGTVISHEPSSDSKSESDSSSNFWIPVLFEGDLAHTANSYLKKNDRVHITGQILGDVIQSGANSDQAHVQLFKSFHGSFSHQVMVRD”, “failed”. On to “MANTSSDWAGAPQNASADGEFVRDTNYIDDRIVADVPAGSEPIAQEDGTFHWPVEAGRYRLVAARACPWAHRTVITRRLLGLENVISLGLTGPTHDVRSWTFDLDPNHLDPVLQIPRLQDAYFNRFPDYPRGITVPALVEESSKKVVTNDYPSITIDFNLEWKQFHREGAPNLYPAELREEMAPVMKRIFTEVNNGVYRTGFAGSQEAHNEAYKRLWVALDWLEDRLSTRRYLMGDHITEADIRLYPTLVRFDAVYHGHFKCGRNKITEMPNLWGYLRDLFQTPGFGDTTDFTEIKQHYYITHAEINPTRIVPVGPDLSGFATPHGREKLGGSPFAEGVTLPGPIPAGEEVKNPEPFQK”, for which the protein production entry was “not failed”.

Take “MANVVILGGNGYLGRNITKVWLEIDPKLEFYIVSRSGQNKLVDKRIHNIKVDVTNEKDVAKKRPDTFDYIIDCIGVPEKDPEKFKQINDLPAETMLALARKQKDPVMGFISGRLGPKTFIDGKAQILKELQDSSIKVASVSPNVVYGNGRKDSMTKMVPFLKFMDLFSAKMNPDDVVKDLINQMIKLHNS”: the protein production entry is “failed”. Under “MANYPKELPAQTQSRQPGIESEMNPSPVYEYEDYKGADKLKGKVALITGGDSGIGRAVSVAYAKEGADIAIVYKDEHEDAEETKKRVEQEGVKCLLIAGDVGEEEFCNEAVEKTVKELGGLDILVNNAGEQHPKESIKDITSEQLHRTFKTNFYSQFYLTKKAIDYLKPGSAIINTTSINPYVGNPTLIDYTATKGAINAFTRTMAQALVKDGIRVNAVAPGPIWTPLIPATFPEETVAQFGQDTPMGRPGQPVEHVGCYVLLASD” stands “not failed”. Under “MAPACTTVHRRRAPLAAVLMLSLLPVLSPHADAAQVPWHSRTFKYVADNKDLKEVLRDLSASQSIATWISPEVTGTLSGKFETSPQKFLDDLAATYGFVWYYDGAVLRIWGANESKSATLSLGTASTKSLRDALARMRLDDPRFPVRYDETAHVAVVSGPPGYVDTVSAIAKQVEQGARQRDATEVQVFQLHYAQAADHTTRIGGQDVQIPGMASLLRSMYGARGAPVAAIPGPGANFGRVQPIGGGSSNTFGNAAQGQGGGASGILGLPSSWFGGASSSDRVPVSPPLPGSGTAATAGSPASVWPELSKGRRDESTPIDAGGGAELASDAPVIEADPRTNTILIRDRPERMQSYGTLIQQLDNRPKLLQIDATIIEIRDGAMQDLGVDWRFHSQHTDIQTGNGSGGQLGFNGALSGAATDGATTPAGGTLTAVLGDAGRYLMTRVSALETTNKAKIVSSPQVATLDNVEAVMDHKQQAFVRVSGYASADLYNLSAGVSLRVLPSVVPGSPNGQMRLDVRIEDGQLGSNTVDGIPVITSSEITTQAFVNEGQSLLIAGYAYDADETDLNAVPGLSKIPLLGNLFKHRQKSGSRMQRLFLLTPHVVSP” stands “failed”; under “MAPDQQVPATALGKSSRISLDGRRSERSVILADGSMHSLTLLHPGVYTLSSEVAETIRVLSGMAYYHAEGANDVQELHAGDSMVIPANQSYRLEVMEPLDYLLSS”, “not failed”; under “MAPFSSSSAEIKIARTAPFSSSAENKGNRQINGASSSASSCDAENAKSGGSRQLGKAAYMEGKHVDALQIFMWMHRKEMSFSTSEVALFVDIIGNTIGIAAAHSYLKKVDPNCDQMHNRTENWPAFVSLVKLETKLLKENGIVHATRPPK”, “failed”.

Consider “MAPGAAQELQAKLAEIGAPIQGNREELVERLQSYTRQTGIVLNRPVLRGEDGDKAAPPPMSAQ”, for which the protein production result is on record as “failed”. Under “MAPHPEAAALLARSHRLGADPRNTNYAGGNASAKGTATDPVTGGDVELMWVKGSGGDLGTLTEAGLAVLRLDRLHALKGVYPGVEREDEMVAAFDYCLHGKGGAAPSIDTAMHGLVDAAHVDHLHPDSGIALACAADGEKLTAECFGDSVAWVPWRRPGFQLGLDIAAVKEANPQTIGCVLGGHGITAWGATAEECERNSLHIIRTAEAFLAERGKAEPFGPLEHHHHHH” stands “failed”; under “MAPKAQKSPKGQRKGKKKTKQQSLVSEEEEPMNMESMDVAPGSSPDLDISMASDGHPEIYPLVLTAKTQEIFNCRIDEDMTDEQTYKLIKKEDILADLQNRAAVSDFHPVKKIVLEYPGEELLLVYDKDFKYGLNFYLIGTEEGKENFLKAPEIPEEQEDLKEHVPEDVYIYKPPVSKPWISLGSEKEIEEESVQESKKRVTYMISRKRSQFGAPVTFRDQNASSVKDAYIECTSYPDKSYTLTQVEKDIGLQVIAEVKDTSTQTRWAFPRNATTQYYPREFSEEEKNVLVESKSLAEFFSTVSTSVEIALQQNEIMNTFTDDWRSLAEEESTFGDKTDTHLKEYQSFTDLHNTMEKMITCVSWHPTIYGLIVVSVAVRLSYEERVQNSSRLLLQPSLILFWSFSDPIHPQLMLESPDDIFCFEFCPSDPNIIAGGCINGQIILWDITAHAERIENIKTGGSRSKKATLKPMFLLEPDSNKEIMYVRHCAVSSIENGHRKVITDIHWLPDSFEINRMGSVFENRSGINCQLITCSADCTICFWDIRPQKPTVTSAATATTTSTTNTNPQQPPAEKKKEESIEIPFDVPSTFLHLDLSWKPLSRIKLSKGETSLDHCPTKLSLGEDPALCKIQDKMLSQMKLLKAAEINPYQNLEGGMANMLKPIEDFRTKFFVGTEEGEVIYTDWKMERDSETGRLMAKKPVNLYTVHDGAVHTVQRSPFFNDIILTVGGWNVAIWKEEVLTGPLLQTCCAPKRYTAGHWSLTRPGVFYIGREDGYVDIWDLLEKTHEPAQSQSICITMITYIKPWTFSCRPPFLPQADRSMMVSLLMSMRHSAKPSGDQNPVSSVNYYFEREVKHLEYVQQRKEIREEEKKAMAMEMIKKKAKTYHRSKEQMEAELKLEYESYLELEQSVLFALGLGKVSEKMSYLDLH”, “failed”; under “MAPKKIGAGKGDSSILAKISNYDIVSQGRRAACDAVYVSKKLLKSTGKAAWIAGTTFLILAVPLILELEQDHRLGEIDFEQASLLGTPPVGAML”, “failed”.

The record behind these values is a protein production outcome set (Wang et al. 2014).
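Also: failed if final PepcDB status was selected cloned or expressed and not failed if soluble or beyond.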
